In patent US20230093399A1, “METHODS FOR GENERATING PLURIPOTENT STEM CELL-DERIVED BROWN FAT CELLS” (AgeX Therapeutics, Inc., priority 2013, published 2023):

Test system: cell line E15 and the line W10
Test: Cell lines E15 and W10 in micromass versus HyStem-C culture with BMP4, gene expression
Format: cell-based, human
Settings: micromass conditions supplemented with 10 ng/mL BMP4
Description: In addition, the incubation of hEP cell lines in HyStem-C (BioTime, Inc. Alameda, Calif.) allowed the accumulation of a large amount of data on the biological influence of HyStem-C (BioTime, Inc. Alameda, Calif.) on diverse cell types. […] This physiological effect on myofibroblastic differentiation seen in many lines cultured in HyStem-C (BioTime, Inc. Alameda, Calif.) beads (i.e., the strong reduction in MYH11 expression) has therapeutic implications in vivo, such as in inhibiting fibrosis or adhesions. It also is of benefit in surgical settings where cells could be transplanted to regenerate tissue function while inhibiting adhesions and related fibrotic process at the surgical site.
The present invention utilizes micromass differentiations to generate high-density cultures, thereby predisposing hEP cells to differentiation in the presence of exogenous factors. Differentiation by micromass culture was performed according to the manufacturer's (BioTime) instructions (Chondrogenesis Differentiation Kit ES-K42). Briefly, cells were cultured in the undifferentiated state, trypsinized (0.25% w/v trypsin/EDTA (Invitrogen)), diluted 1:3 with PBS (Ca and Mg free), and resuspended at a cell density of 2.0×10^7 cells/ml in their respective growth media. […]

B1: BMP4: Bone Morphogenetic Protein 4, TGF-beta superfamily member (protein, UniProt P12644 293-408, looked up)
Bone morphogenetic protein 4: SPKHHSQRARKKNKNCRRHSLYVDFSDVGWNDWIVAPPGYQAFYCHGDCPFPLADHLNSTNHAIVQTLVNSVNSSIPKACCVPTELSAISMLYLDEYDKVVLKNYQEMVVEGCGCR
  MYH11 expression: strongly induced
